Results reported in patent US20230212304A1 (BIOSION, published 2023).
Read-outs that look alike come from different tables or passages of the source. Values belong to the binder of their own block, whether it stands above or below them.

Tests used:
[1] = biological target: T1, recombinant human CTLA4 protein with human IgG1 Fc tag at the C-terminus (Acro biosystems, Cat#CT4-H5255) (human, UniProt P16410 37-162); assay: cell based blocking FACS: antibody pre-mixed with human CTLA4-Fc (1 ug/mL), added to Daudi cells; blocked ligands: cell surface CD80/CD86
T1 construct: bought protein; also called human CTLA4-Fc; CTLA4-Fc; not shown: human IgG1 Fc tag at the C-terminus
T1 sequence (looked up): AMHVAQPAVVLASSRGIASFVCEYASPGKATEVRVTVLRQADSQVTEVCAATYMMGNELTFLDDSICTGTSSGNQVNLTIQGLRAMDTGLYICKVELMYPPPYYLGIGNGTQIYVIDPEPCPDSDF
Experimental: (§1) Daudi cells were harvested from cell culture flasks at the log phase, washed twice and re-suspended in PBS containing 2% v/v Fetal Bovine Serum (FACS buffer). […] Cells were washed twice and re-suspended in FACS buffer. Fluorescence was measured using a Becton Dickinson FACS Canto II-HTS equipment. Data was analyzed using Graphpad Prism software and IC₅₀ values were reported.

[2] = biological target: T2, recombinant human CTLA4-his protein (Acro biosystems, Cat#CT4-H5229) (human, UniProt P16410 37-162); assay: SPR, Biacore T200; antibody captured, CTLA4-his as analyte
T2 construct: bought recombinant protein; not shown: his tag
T2 sequence (looked up): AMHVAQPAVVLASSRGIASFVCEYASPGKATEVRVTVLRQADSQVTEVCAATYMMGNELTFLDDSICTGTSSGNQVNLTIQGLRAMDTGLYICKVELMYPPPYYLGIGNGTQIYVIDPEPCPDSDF
Experimental: (§2) Un-reacted moieties on the biosensor surface were blocked with ethanolamine. […] The antigen-antibody association kinetics was followed for 2 minutes and the dissociation kinetics was followed for 10 minutes. The association and dissociation curves were fit to a 1:1 Langmuir binding model using BIAcore evaluation software.

[3] = biological target: T3, cynomolgus monkey CTLA4-his protein (Acro biosystems, Cat#CT4-C5227) (cynomolgus monkey, UniProt G7PL88 36-161); assay: as above
T3 construct: bought recombinant protein; also called Cynomolgus CTLA4-his; not shown: his tag
T3 sequence: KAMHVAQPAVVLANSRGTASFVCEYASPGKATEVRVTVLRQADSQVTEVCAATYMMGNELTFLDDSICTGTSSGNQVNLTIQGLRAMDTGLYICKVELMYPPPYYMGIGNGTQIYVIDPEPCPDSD
Experimental: as §2

[4] = biological target: T1, recombinant human CTLA4 protein with …; assay: competitive ELISA: antibody pre-mixed with biotin human CTLA4-Fc (65 ng/ml), added to plate coated with the benchmark; competitor: coated Yervoy
[5] = biological target: T1, recombinant human CTLA4 protein with …; assay: capture ELISA: antibody captured on coated plate (anti-human IgG Fc for the chimeric antibodies), biotin human CTLA4-Fc, streptavidin-HRP, OD(450-630)
[6] = biological target: T1, recombinant human CTLA4 protein with …; assay: capture ELISA: antibody captured on anti-mouse IgG F(ab')2 coated plate, biotin human CTLA4-Fc 26 ng/ml, streptavidin-HRP, OD(450-630)
[7] = biological target: T1, recombinant human CTLA4 protein with …; assay: competitive ELISA: antibody pre-mixed with biotin human CTLA4-Fc, added to plate coated with the benchmark; competitor: coated Yervoy
Experimental: Plates were washed once with wash buffer, blocked with 200 µl PBST with 5% w/v non-fatty milk, incubated for 2 hours at 37° C., and washed 4 times.
After incubation at 37° C. for 40 minutes, plates were washed 4 times again using wash buffer. Then the plates were added and incubated with 100 µl/well streptavidin conjugated HRP (1:10000 dilution in PBST, Jackson Immuno Research, Cat#016-030-084, 100 µl/well) for 40 minutes at 37° C. Plates were finally washed using wash buffer. Finally, TMB was added and the reaction was stopped using 1M H₂SO₄, and the absorbance of the each well was read on a microplate reader using dual wavelength mode with 450 nm for TMB and 630 nm as the reference wavelength, then the OD (450-630) values were plotted against antibody concentration. Data was analyzed using Graphpad Prism software and IC₅₀ values were reported.
(§3) In the capture ELISA assay, the 96-well micro plates were coated with 2 µg/ml goat anti-human IgG (AffiniPure Goat Anti-Human IgG, F(ab′)₂ fragment specific, Jackson Immunoresearch, Cat#109-005-097) instead of the goat anti-mouse IgG F(ab′)₂ fragment, 100 µl/well.

[8] = biological target: T1, recombinant human CTLA4 protein with …; assay: cell based blocking FACS: antibody pre-mixed with human CTLA4-Fc, added to Daudi cells; blocked ligands: cell surface CD80/CD86
[9] = biological target: T1, recombinant human CTLA4 protein with …; assay: as above; remark: listed apart in the source
Experimental: as §1

[10] = biological target: T1, recombinant human CTLA4 protein with …; assay: capture ELISA (plate coated with goat anti-human IgG F(ab')2 per paragraph 181), biotin human CTLA4-Fc, streptavidin-HRP, OD(450-630)
Experimental: Plates were washed once with wash buffer (PBS+0.05% v/v Tween-20, PBST) and then blocked with 200 µl/well blocking buffer (PBST with 5% w/v non-fatty milk) for 2 hours at 37° C. […] After a final wash, plates were incubated with 100 µl/well substrate TMB (Innoreagents, Cat#TMB-S-002). The reaction was stopped in 15 minutes at room temperature with 50 µl/well 1M H₂SO₄, and the absorbance of the each well was read on a microplate reader using dual wavelength mode with 450 nm for TMB and 630 nm as the reference wavelength, then the OD (450-630) values were plotted against antibody concentration. Data was analyzed using Graphpad Prism software and EC₅₀ values were reported.
as §3

[11] = biological target: T1, recombinant human CTLA4 protein with …; assay: cell-based or functional assay
[12] = biological target: T1, recombinant human CTLA4 protein with …; assay: cell-based or functional assay; remark: listed apart in the source
[13] = biological target: T2, recombinant human CTLA4-his protein …; assay: BLI, Octet RED96; antibody on AHC sensor, CTLA4-his as analyte
Experimental: (§4) Briefly, AHC biosensors (anti-human IgG Fc capture, from ForteBio) were presoaked with 10 mM glycine (pH 1.5) for 3 seconds, and then dipped in a well with running buffer (0.5% w/v BSA in PBST) for 3 seconds, the soaking and dipping steps were repeated for three times. […] A new baseline was run for 180 seconds in another well with running buffer. […] Finally, sensors were presoaked with 10 mM glycine (pH 1.5) for 3 seconds, and then were dipped in a well with running buffer for 3 seconds, the soaking and dipping steps repeated for three times. The association and dissociation curves were fit to a 1:1 Langmuir binding model using ForteBio Data Analysis 8.1.

[14] = biological target: T2, recombinant human CTLA4-his protein …; assay: SPR, Biacore; antibody captured on anti-human IgG CM5 chip, CTLA4-his as analyte
Experimental: as §2, with “software. […]” for “software.”

[15] = biological target: T3, cynomolgus monkey CTLA4-his protein …; assay: as above
Experimental: as §2, with “software. […]” for “software.”

[16] = biological target: T2, recombinant human CTLA4-his protein …; assay: BLI, Octet; antibody at 5 ug/ml on AHC sensor, CTLA4-his as analyte
Experimental: as §4

IC50 [1]: 4.77 nM | Kd [2]: 1.89 nM | koff [2]: 0.000276 s⁻¹ | kon [2]: 146000 M⁻¹ s⁻¹ | Kd [3]: 4.67 nM | koff [3]: 0.00047 s⁻¹ | kon [3]: 101000 M⁻¹ s⁻¹ | IC50 [4]: 0.646 nM | EC50 [5]: 0.632 nM | EC50 [6]: 0.103 nM | IC50 [7]: 5.75 nM | IC50 [8]: 9.67 nM | IC50 [9]: 5.82 nM | EC50 [10]: 0.778 nM | EC50 of IL-2 release (GS-J1 T cells + GS-C1/CD80 cells + human CTLA4-Fc, IL-2 HTRF) [11]: 37.5 nM | EC50 of IL-2 release (GS-J1 T cells + GS-C1/CD80 cells + human CTLA4-Fc, IL-2 HTRF) [12]: 42.3 nM
B1: mouse anti-CTLA4 monoclonal antibody D1D5 (antibody, V domains shown)
VH: EVKLVESGGGLVKPGGSLKLSCAASGFTFSDYGMAWVRQAPGKGPEWVAFISNLAYSVYYADTETGRFTISREDAKNTLYLEMSSLRSEDTAMYYCARSGLPYAMDYWGQGTSVTVSS
VL: DIQMTQTTSSLSASLGDRVTISCRASQDISNYLNWYQQKPDGTVKLLIYYISRLHSGVPSRFSGSGSGTDFSLTISNLEQEDIATYFCQQGRMLPWTFGGGTRLEIK
notes: mouse mAb purified from hybridoma supernatant

Kd [13]: 5.32 nM | koff [13]: 0.00166 s⁻¹ | kon [13]: 312000 M⁻¹ s⁻¹ | Kd [14]: 1.93 nM | koff [14]: 0.000404 s⁻¹ | kon [14]: 209000 M⁻¹ s⁻¹ | Kd [15]: 0.968 nM | koff [15]: 0.000505 s⁻¹ | kon [15]: 521000 M⁻¹ s⁻¹ | Kd [16]: < 0.001 nM | koff [16]: < 1e-07 s⁻¹ | kon [16]: 132000 M⁻¹ s⁻¹ | EC50 [5]: 0.992 nM | IC50 [7]: 0.785 nM | IC50 [8]: 12.6 nM | IC50 [9]: 6 nM | EC50 [10]: 0.575 nM | EC50 of IL-2 release (GS-J1 T cells + GS-C1/CD80 cells + human CTLA4-Fc, IL-2 HTRF) [12]: 82.1 nM
B2: chimeric D1D5 anti-CTLA4 antibody (antibody, human IgG4 S228P, kappa, V domains shown)
VH: EVKLVESGGGLVKPGGSLKLSCAASGFTFSDYGMAWVRQAPGKGPEWVAFISNLAYSVYYADTETGRFTISREDAKNTLYLEMSSLRSEDTAMYYCARSGLPYAMDYWGQGTSVTVSS
VL: DIQMTQTTSSLSASLGDRVTISCRASQDISNYLNWYQQKPDGTVKLLIYYISRLHSGVPSRFSGSGSGTDFSLTISNLEQEDIATYFCQQGRMLPWTFGGGTRLEIKR
notes: mouse variable domains on human IgG4/kappa, made in 293F cells
